B1: SjGMD1 (Saccharina japonica) (protein)
chain: MAEVMPKESIIQIGCGVVGGAYAKAYKHHGFSVRGFDVVPSIIEKMNDAGIPCCHPDDCPEDLNPEIVLLSVPTPLIKETQRLDMKYVWSTVPLVLKLVEQSTGPAPIFVIRSTVPPGMTKEWMAAVKEKATKPFHVAFQPEFLRAVSCEEDARAPWQVVFGYMTGEEEVKARMTNAFLEFVGRDESKLTVLNIAEAEFMKLAHNYANGLKISFANCIYGLANQLDPTIDAQKVLYLVSSTAECFLSRKYGLRVGAPYGGVCLPKDVPELTSLAPEGSVFREFLAGTGKINEWISGPEAKNMRVELDESPNWVSPDSLTT
B2: SjGMD2 (Saccharina japonica) (protein)
chain: MSGKENVVQIGCGVVGGAYAKAYVHHGFSLTGFDVVPAIIGNMNEAGIKCFHPDDCPADLNADIVLLSVPTPLIKETQRLDMKYVWSTIPLVVKLVEQSSGLAPILVIRSTVPPGTTLKWEAEVRAKTDKPFKVAFQPEFLRAVSCEEDARAPWQIVFGCAKDADETRTRMSNCFLDFVGRDEAKLTVLNIAEAEFMKLVHNYANGLKISFANCIYGLAHELDPTIDAQKVLYLVSSTAECYLSRKYGLRVGAPYGGVCLPKDVPELTSLAPEGSVFREFLAGTGKINEWITNTPNLKVELTESPNWVSPSELII

How the values were obtained:
[1] = substrate: NC(=O)c1ccc[n+]([C@@H]2O[C@H](COP(=O)(O)OP(=O)(O)OC[C@H]3O[C@@H](n4cnc5c(N)ncnc54)[C@H](O)[C@@H]3O)[C@@H](O)[C@H]2O)c1; experiment: purified protein; type: biochemical, Saccharina japonica; details: 100 mM Tris-HCl, co-substrate GDP-mannose, MBP fusion, varied: cofactor
[2] = substrate: Nc1nc2c(ncn2[C@@H]2O[C@H](COP(=O)(O)OP(=O)(O)O[C@H]3O[C@H](CO)[C@@H](O)[C@H](O)[C@@H]3O)[C@@H](O)[C@H]2O)c(=O)[nH]1; experiment: purified protein; type: biochemical, Saccharina japonica; details: 100 mM Tris-HCl, co-substrate NAD+, MBP fusion
[3] = optimal conditions (pH 8.0, 30 °C)
[4] = optimal conditions (pH 8.25, 20 °C)

| Protein | Km [1, 3] | Km [2, 3] | Km [1, 4] | Km [2, 4] |
| --- | --- | --- | --- | --- |
| B1 | 139 µM | 289 µM | – | – |
| B2 | – | – | 195 µM | 177 µM |
